Experimental data as given in article PMC7545097, “Mapping the native interaction surfaces of PREP1 with PBX1 by cross-linking mass-spectrometry and mutagenesis” (Scientific Reports, 2020).

B1: PBX1_(1-430), wild-type recombinant [human] / PREP1_(1-436), wild-type recombinant (TR-FIA) [not stated] (parent complex)
chain 1: MDEQPRLMHSHAGVGMAGHPGLSQHLQDGAGGTEGEGGRKQDIGDILQQIMTITDQSLDEAQARKHALNCHRMKPALFNVLCEIKEKTVLSIRGAQEEEPTDPQLMRLDNMLLAEGVAGPEKGGGSAAAAAAAAASGGAGSDNSVEHSDYRAKLSQIRQIYHTELEKYEQACNEFTTHVMNLLREQSRTRPISPKEIERMVSIIHRKFSSIQMQLKQSTCEAVMILRSRFLDARRKRRNFNKQATEILNEYFYSHLSNPYPSEEAKEELAKKCGITVSQVSNWFGNKRIRYKKNIGKFQEEANIYAAKTAVTATNVSAHGSQANSPSTPNSAGSSSSFNMSNSGDLFMSVQSLNGDSYQGAQVGANVQSQVDTLRHVISQTGGYSDGLAASQMYSPQGISANGGWQDATTPSSVTSPTEGPGSVHSDTSN
chain 2: MMATQTLSIDSYQDGQQMQVVTELKTEQDPNCSEPDAEGVSPPPVESQTPMDVDKQAIYRHPLFPLLALLFEKCEQSTQGSEGTTSASFDVDIENFVRKQEKEGKPFFCEDPETDNLMVKAIQVLRIHLLELEKVNELCKDFCSRYIACLKTKMNSETLLSGEPGSPYSPVQSQQIQSAITGTISPQGIVVPASALQQGNVAMATVAGGTVYQPVTVVTPQGQVVTQTLSPGTIRIQNSQLQLQLNQDLSILHQDDGSSKNKRGVLPKHATNVMRSWLFQHIGHPYPTEDEKKQIAAQTNLTLLQVNNWFINARRRILQPMLDSSCSETPKTKKKTAQNRPVQRFWPDSIASGVAQPPPSELTMSEGAVVTITTPVNMNVDSLQSLSSDGATLAVQQVMMAGQSEDESVDSTEEDAGALAPAHISGLVLENSDSLQ
B2: N-terminal GST-fused wild-type PREP1 [not stated] / PBX1_(1-430), wild-type recombinant [human] (parent complex)
chain 1: B1 chain 2
chain 2: B1 chain 1

Variants of: B1
Test: TR-FIA; parent: 1; read off a plot

Variant | ratio to parent
chain 1 I197A, chain 1 I204A | ~0.64
chain 1 L77A, chain 1 V80A, chain 1 L81A | ~0.34
chain 1 I43A, chain 1 I46A, chain 1 I50A | ~0.8
chain 1 I43A, chain 1 I50A | ~0.84
chain 1 L113A | ~0.66
chain 1 I43A | ~1
chain 1 I46A | ~0.9
chain 1 L77A, chain 1 I84A | ~0.46
chain 1 L105A | ~0.71
chain 1 L108A | ~0.73
chain 1 I50A | ~0.62
chain 1 L47A | ~0.75
chain 1 I84A | ~0.56
chain 1 I50A, chain 1 I53A | ~0.83
chain 1 L77A, chain 1 V80A | ~0.42
chain 1 I43A, chain 1 I46A | ~0.79
chain 1 L77A | ~0.63
chain 1 V80A, chain 1 L81A | ~0.39
chain 1 L105A, chain 1 L108A, chain 1 L113A | ~0.66
chain 1 L81A | ~0.52
chain 1 L105A, chain 1 L108A | ~0.62
chain 1 I53A | ~0.93
chain 1 V80A | ~0.45

Variants of: B2
Test: TR-FIA; parent: 1; read off a plot

Variant | ratio to parent
chain 1 L249A | ~0.96
chain 1 I122A | ~0.79
chain 1 V124A | ~0.91
chain 1 L245A | ~1
chain 1 L125A | ~0.63
chain 1 L67A | ~0.65
chain 1 L63A | ~0.6
chain 1 L129A | ~0.43
chain 1 L70A | ~0.53
chain 1 L252A | ~0.95
chain 1 L130A | ~0.79
chain 1 L63A, chain 1 L66A, chain 1 L67A, chain 1 L70A | ~0.58
chain 1 I251A | ~0.88
chain 1 L69A | ~1.1
chain 1 L117A | ~0.48
chain 1 L66A | ~0.59

Variants of: B2
Test: ELISA; PBX1 0.5 µM (highest point of the titration); GST control signal subtracted; parent: 0.8; read off a plot

Variant | response
chain 1 L63A, chain 1 L66A, chain 1 L67A, chain 1 L70A | ~0.13 Abs, 495 nm
